Test results reported in publication PMC12278339 (2025).

Target: Gab2a 12mer peptide (Homo sapiens, UniProt Q9UQC2)
Test: SPR

Sequence of Gab2a 12mer peptide (Q9UQC2 whole entry): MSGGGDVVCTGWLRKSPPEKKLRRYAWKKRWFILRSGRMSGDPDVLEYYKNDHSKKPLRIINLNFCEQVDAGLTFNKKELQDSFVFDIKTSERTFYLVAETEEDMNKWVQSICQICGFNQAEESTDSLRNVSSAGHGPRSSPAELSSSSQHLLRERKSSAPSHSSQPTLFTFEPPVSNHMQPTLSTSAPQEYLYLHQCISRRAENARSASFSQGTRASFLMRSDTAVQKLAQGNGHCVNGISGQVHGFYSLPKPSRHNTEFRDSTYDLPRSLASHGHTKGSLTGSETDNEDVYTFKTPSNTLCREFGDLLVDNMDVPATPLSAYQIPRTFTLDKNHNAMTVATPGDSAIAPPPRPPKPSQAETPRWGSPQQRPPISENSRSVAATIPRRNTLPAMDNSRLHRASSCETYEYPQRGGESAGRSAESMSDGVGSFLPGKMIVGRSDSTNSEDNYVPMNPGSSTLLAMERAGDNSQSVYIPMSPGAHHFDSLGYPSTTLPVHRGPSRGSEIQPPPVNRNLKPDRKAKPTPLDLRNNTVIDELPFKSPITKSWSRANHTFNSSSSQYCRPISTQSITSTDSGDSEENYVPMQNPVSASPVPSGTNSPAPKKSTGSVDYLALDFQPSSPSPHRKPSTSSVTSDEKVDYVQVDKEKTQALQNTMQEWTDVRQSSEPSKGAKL

Kd: 161 µM
B1: Grb2 SH3C (protein)
chain: QQPTYVQALFDFDPQEDGELGFRRGDFIHVMDNSDPNWWKGACHGQTGMFPRNYVTPVNR
